Assay results: patent US20210205211A1, “PERCUTANEOUS ABSORPTION PREPARATION” (KYUSHU UNIVERSITY, NATIONAL UNIVERSITY CORPORATION, priority 2018, published 2021)
Residues, ends and D or L forms follow the SMILES beside them.

B1: Ovalubumin: Ovalbumin (OVA), 45 kDa, labeled with FITC; model hydrophilic drug (protein, UniProt P01012 2-386, looked up)
Ovalbumin: GSIGAASMEFCFDVFKELKVHHANENIFYCPIAIMSALAMVYLGAKDSTRTQINKVVRFDKLPGFGDSIEAQCGTSVNVHSSLRDILNQITKPNDVYSFSLASRLYAEERYPILPEYLQCVKELYRGGLEPINFQTAADQARELINSWVESQTNGIIRNVLQPSSVDSQTAMVLVNAIVFKGLWEKAFKDEDTQAMPFRVTEQESKPVQMMYQIGLFRVASMASEKMKILELPFASGTMSMLVLLPDEVSGLEQLESIINFEKLTEWTSSNVMEERKIKVYLPRMKMEEKYNLTSVLMAMGITDVFSSSANLSGISSAESLKISQAVHAAHAEINEAGREVVGSAEAGVDAASVSEEFRADHPFLFCIKHIATNAVLFFGRCVSP
modifications: FITC
notes: Ovalbumin (OVA), 45 kDa, labeled with FITC; model hydrophilic drug

How the values were obtained:
[1] = Measurement of zeta potential by electrophoretic light scattering; format: physicochemical; conditions: 1 mg in 1 mL PBS solution, 25° C., Zetasizer Nano ZS
Description: In each 1 mL of a PBS solution was dissolved 1 mg of a part (7 kinds) of the various kinds of hydrophilic polymers shown in the above-mentioned Table 1, and a zeta potential was measured by an electrophoretic light scattering method at 25° C. using Zetasizer Nano ZS (Malvern Panalytical Ltd.).

[2] = In vitro skin permeability test of hydrophilic polymers in S/O-S formulation containing MGOL-70 (Example 6); conditions: for Skin permeation amount of S/O-S preparation: 1 mg/mL hydrophilic polymer S/O-S formulation in IPM containing 25 mg/mL MGOL-70; for Skin permeation amount of S/O-S preparation / Skin permeation amount of PBS solution: YMP skin, 24 hours, 32° C.; for Enhancement effect: S/O-S preparation versus PBS solution; for Skin permeation amount of PBS solution: hydrophilic polymer in PBS solution
[3] = no method given; cited from earlier work
[4] = In vitro skin permeability test of OVA S/O-S formulations with various base oils (Example 8); format: in vitro ADME, Yucatan micropig; conditions: for Average skin permeation amount: Yucatan micropig, pig, 24 h
[5] = In vitro skin permeability test of CMAP peptide S/O-S formulations with various oily bases (Example 1); format: in vitro ADME, Yucatan micropig
[6] = In vitro skin permeability test of OVA versus concentration of permeation enhancing substance (Example 3); conditions: S/O-S formulation 1 mg/mL OVA in IPM; enhancer solutions of 2, 10, 50 or 100 mg/mL mixed 1:1; 24 hours
[7] = In vitro skin permeability test of OVA with glyceryl monooleate/glyceryl monolinoleate (Example 11); format: in vitro ADME; conditions: OVA S/O-S in IPM; HR-1 mouse skin, 4 hours
Description: Glyceryl monooleate and glyceryl monolinoleate were dissolved in IPM with the composition shown in the following Table 7 to prepare Formulation 2.
Formulation 1 and Formulation 2 were mixed with a volume ratio of 1:1, and used in the following skin permeability test.
After 4 hours, the receiver phase was recovered, and the amount of the FITC-OVA permeated through the skin was quantified by using a plate reader.

Row | Molecule | ζ potential [1] | Skin permeation amount of S/O-S preparation [2] | Enhancement effect [2] | Skin permeation amount of PBS solution [2] | pI [3] | also measured
1 | Green fluorescent protein | −9.52 mV | 35.0 μg/cm^2 | 8.4 fold | 4.2 μg/cm^2 | 6.1 | state of the protein permeated into the skin ([2]; quantified by own fluorescence (GFP) or peroxidase activity (HRP) in skin extract): could be permeated into the skin without being denatured
2 | CCCCCCCCCCCCCC(=O)OC(C)C [Isopropyl myristate, isopropyl myristate] |  |  |  |  |  | skin permeation effect of OVA by oily base [4]: high skin permeation effect; Average skin permeation amount [4]: 44.3 μg/cm^2
3 | Lysozyme: Lysozyme, 14.3 kDa, FITC-label | 8.84 mV | 6.0 μg/cm^2 | 1.5 fold | 4.0 μg/cm^2 | 11 | 
4 | CCCCCCCC/C=C\CCCCCCCC(=O)O [oleic acid] |  |  |  |  |  | enhancing effect of percutaneous permeation (amount of skin permeation of the CMAP peptide) [5]: high enhancing effect of percutaneous permeation
5 | Bovin serum albumin: Bovine serum albumin, 66.5 kDa, FITC-label | −16.7 mV | 32.1 μg/cm^2 | 8.9 fold | 3.6 μg/cm^2 | 4.7 | 
6 | CCCCCCCC/C=C\CCCCCCCC(=O)OCC(O)CO (stereo not drawn) [MGOL-70, glyceryl monooleate] |  |  |  |  |  | tendency of the enhancing substance on percutaneous permeation of OVA [6]: tend to enhance it
7 | CC(C)CCCC(C)CCCC(C)CCCCC(C)CCCC(C)CCCC(C)C (stereo not drawn) [Squalane, squalane] |  |  |  |  |  | skin permeation effect of OVA by oily base [4]: high skin permeation effect; Average skin permeation amount [4]: 40.8 μg/cm^2
8 | Cholera toxin subunit B | −3.29 mV | 39.4 μg/cm^2 | 4.0 fold | 9.8 μg/cm^2 | 6.6 | 
9 | CC(C)C[C@H](NC(=O)[C@H](CCC(=O)O)NC(=O)[C@H](CCC(=O)O)NC(=O)[C@@H](NC(=O)[C@H](Cc1ccc(O)cc1)NC(=O)[C@@H](NC(=O)[C@H](CCCNC(=N)N)NC(=O)[C@H](CC(C)C)NC(=O)[C@@H]1CCCN1C(=O)[C@H](C)NC(=O)[C@H](CO)NC(=O)[C@H](CCC(N)=O)NC(=O)[C@H](C)NC(=O)[C@H](CC(=O)O)NC(=O)[C@H](CC(C)C)NC(=O)[C@@H](N)CC(C)C)C(C)C)C(C)C)C(=O)N[C@@H](CCCCN)C(=O)N1CCC[C@H]1C(=O)O [Peptide (CMAP, from Beta-lactoglobulin)] (H-LLDAQSAPLRVYVEELKP-OH; N-terminus and C-terminus assumed) |  | 11.1 μg/cm^2 | 15 fold | 1.30 μg/cm^2 |  | 
10 | CCCCC/C=C\C/C=C\CCCCCCCC(=O)OCC(O)CO (stereo not drawn) [glyceryl monolinoleate] |  |  |  |  |  | skin permeation amount of the drug with increase in the addition ratio [7]: the skin permeation amount of the drug was increased
11 | B1 | −12.80 mV | 12.5 μg/cm^2 | 30 fold | 0.41 μg/cm^2 | 4.9 | 
